Assay results from patent publication US20240376170A1 (BRIGHT PEAK THERAPEUTICS, published 2024).
Bridges are numbered along the chain shown (N, C = ends). Primed or numbered codes have the meaning given here. [ ]: non-standard residue; d: D form. Ygp(4) = Tyr with amino-capped PEG8 (O-(8x polyethylene glycol-amino)-tyrosine); Yn3(4) = Tyr with azide-capped PEG9 (O-(9x polyethylene glycol-azido)-tyrosine); Ygp″ = O-(8x polyethylene glycol-amino)-tyrosine; Yn3″ = O-(9x polyethylene glycol-azido)-tyrosine; PEG4′ = 4x polyethylene glycol; PEG9′ = 9x polyethylene glycol; hSer = N[C@@H](CCO)C(=O)O; Nle = CCCC[C@H](N)C(=O)O

Molecular target: T1, IL-2 receptor βγ complex (human, UniProt P14784 27-551; P31785 23-369)
T1 sequence (looked up) 1: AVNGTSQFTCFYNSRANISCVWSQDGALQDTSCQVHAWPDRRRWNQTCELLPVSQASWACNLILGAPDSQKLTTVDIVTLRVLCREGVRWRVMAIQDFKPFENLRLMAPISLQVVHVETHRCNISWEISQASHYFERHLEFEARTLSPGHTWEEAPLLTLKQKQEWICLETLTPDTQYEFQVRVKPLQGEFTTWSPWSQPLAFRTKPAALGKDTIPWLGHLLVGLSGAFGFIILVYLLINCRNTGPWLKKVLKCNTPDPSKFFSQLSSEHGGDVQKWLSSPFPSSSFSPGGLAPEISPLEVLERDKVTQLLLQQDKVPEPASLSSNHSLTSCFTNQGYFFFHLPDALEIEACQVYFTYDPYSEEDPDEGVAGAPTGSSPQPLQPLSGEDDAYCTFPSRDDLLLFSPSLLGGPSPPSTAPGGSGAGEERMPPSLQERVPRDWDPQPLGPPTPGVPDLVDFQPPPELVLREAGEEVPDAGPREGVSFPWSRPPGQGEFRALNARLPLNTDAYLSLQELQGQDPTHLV
T1 sequence (looked up) 2: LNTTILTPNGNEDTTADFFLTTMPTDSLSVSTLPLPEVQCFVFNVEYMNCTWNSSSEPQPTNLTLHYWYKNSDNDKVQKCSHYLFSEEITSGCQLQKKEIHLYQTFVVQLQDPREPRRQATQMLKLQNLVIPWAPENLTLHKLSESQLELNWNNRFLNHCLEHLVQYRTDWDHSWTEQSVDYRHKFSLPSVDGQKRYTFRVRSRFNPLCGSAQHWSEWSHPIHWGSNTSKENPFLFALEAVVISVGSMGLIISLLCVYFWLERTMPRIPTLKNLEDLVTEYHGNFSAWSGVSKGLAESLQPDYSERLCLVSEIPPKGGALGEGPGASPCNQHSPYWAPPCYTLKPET
Assay: cell-based or functional assay

Row | Average EC50, pSTAT5 Assay (T cells) [nM] | Binder
1 | 2.21 | CMP-160, MMP2 cleaved molecule (ligand, not fully specified; ends and bridges not checked; also: MMP2 cleaved, cleavage site and linker fragments on N-terminus and Glu26 side chain not given here) APTSSSTKKTQLQLEHLLLDLQ[Nle]ILEGINNYKNPKLTR[Nle]L[hSer][Yn3(4)]KF[Ygp(4)][Nle]PKKATELKHLQCLEEELKPLEEVL[hSer]LAQSKNFHLRPRDLISNINVIVLELKGSETTF[hSer]CEYADETATIVEFLNRWITFSQSIISTLT
2 | 21.3 | CMP-156, MMP2 cleaved molecule (ligand, not fully specified; also: MMP2 cleaved, cleavage site and linker fragments on N-terminus and Glu19 side chain not given here) APTSSSTKKTQLQLEHLLEDLQ[Nle]ILNGINNYKNPKLTR[Nle]L[hSer][Yn3″]KF[Ygp″][Nle]PKKATELKHLQCLEEELKPLEEVL[hSer]LAQSKNFHLRPRDLISNINVIVLELKGSETTF[hSer]CEYADETATIVEFLNRWITFSQSIISTLT
3 | 2.9 | CMP-155, MMP2 cleaved molecule (ligand, not fully specified; also: cleaved by MMP2, cleavage product not defined, N-terminal PEG9 link and Glu29 side-chain attachment of the cleavable peptide not defined) APTSSSTKKTQLQLEHLLLDLQ[Nle]ILNGIENYKNPKLTR[Nle]L[hSer][Yn3″]KF[Ygp″][Nle]PKKATELKHLQCLEEELKPLEEVL[hSer]LAQSKNFHLRPRDLISNINVIVLELKGSETTF[hSer]CEYADETATIVEFLNRWITFSQSIISTLT
4 | 10 | CMP-157, MMP2 cleaved molecule (ligand, not fully specified (bridges); also: MMP2 cleaved, site not given here) PLGLAGAPTSSSTKKTQLQLEHLLEDLQ[Nle]ILNGINNYKNPKLTR[Nle]L[hSer][Yn3″]KF[Ygp″][Nle]PKKATELKHLQCLEEELKPLEEVL[hSer]LAQSKNFHLRPRDLISNINVIVLELKGSETTF[hSer]CEYADETATIVEFLNRWITFSQSIISTLT
5 | 10.7 | CMP-155 (ligand, linker N-29 via GPLGLAG‑PEG9) APTSSSTKKTQLQLEHLLLDLQ[Nle]ILNGIENYKNPKLTR[Nle]L[hSer][Yn3″]KF[Ygp″][Nle]PKKATELKHLQCLEEELKPLEEVL[hSer]LAQSKNFHLRPRDLISNINVIVLELKGSETTF[hSer]CEYADETATIVEFLNRWITFSQSIISTLT
6 | 35.5 | CMP-159 (ligand, bridge N-28; not fully specified (N-terminus, bridges); ends not checked) PLGLAGAPTSSSTKKTQLQLEHLLLDLE[Nle]ILNGINNYKNPKLTR[Nle]L[hSer][Yn3(4)]KF[Ygp(4)][Nle]PKKATELKHLQCLEEELKPLEEVL[hSer]LAQSKNFHLRPRDLISNINVIVLELKGSETTF[hSer]CEYADETATIVEFLNRWITFSQSIISTLT
7 | 36.6 | CMP-158 (ligand, bridge N-30; not fully specified (bridges); ends not checked) GPLGLAG[PEG4′]APTSSSTKKTQLQLEHLLLDLE[Nle]ILNGINNYKNPKLTR[Nle]L[hSer][Yn3(4)]KF[Ygp(4)][Nle]PKKATELKHLQCLEEELKPLEEVL[hSer]LAQSKNFHLRPRDLISNINVIVLELKGSETTF[hSer]CEYADETATIVEFLNRWITFSQSIISTLT
8 | 54.5 | CMP-157 (ligand, linker N-25 via PEG4′) PLGLAGAPTSSSTKKTQLQLEHLLEDLQ[Nle]ILNGINNYKNPKLTR[Nle]L[hSer][Yn3″]KF[Ygp″][Nle]PKKATELKHLQCLEEELKPLEEVL[hSer]LAQSKNFHLRPRDLISNINVIVLELKGSETTF[hSer]CEYADETATIVEFLNRWITFSQSIISTLT
9 | 27.8 | CMP-160 (ligand, bridge N-34; not fully specified (bridges); ends not checked) GPLGLAG[PEG9′]APTSSSTKKTQLQLEHLLLDLQ[Nle]ILEGINNYKNPKLTR[Nle]L[hSer][Yn3(4)]KF[Ygp(4)][Nle]PKKATELKHLQCLEEELKPLEEVL[hSer]LAQSKNFHLRPRDLISNINVIVLELKGSETTF[hSer]CEYADETATIVEFLNRWITFSQSIISTLT
10 | 2.79 | CMP-162 (ligand, ends and bridges not checked; also: further groups not given here) APTSSSTKKTQLQLEHLLLDLQKILNGINNYKNPKLTR[Nle]L[hSer][Yn3(4)]KF[Ygp(4)][Nle]PKKATELKHLQCLEEELKPLEEVL[hSer]LAQSKNFHLRPRDLISNINVIVLELKGSETTF[hSer]CEYADETATIVEFLNRWITFSQSIISTLT
11 | 2.27 | CMP-159, MMP2 cleaved molecule (ligand, not fully specified (bridges); ends and bridges not checked; also: MMP2 cleaved, site not given here) PLGLAGAPTSSSTKKTQLQLEHLLLDLE[Nle]ILNGINNYKNPKLTR[Nle]L[hSer][Yn3(4)]KF[Ygp(4)][Nle]PKKATELKHLQCLEEELKPLEEVL[hSer]LAQSKNFHLRPRDLISNINVIVLELKGSETTF[hSer]CEYADETATIVEFLNRWITFSQSIISTLT
12 | 3.59 | CMP-161, MMP2 cleaved molecule (ligand, not fully specified (bridges); ends and bridges not checked; also: MMP2 cleaved, site not given here) PLGLAGAPTSSSTKKTQLQLEHLLLDLQ[Nle]ILEGINNYKNPKLTR[Nle]L[hSer][Yn3(4)]KF[Ygp(4)][Nle]PKKATELKHLQCLEEELKPLEEVL[hSer]LAQSKNFHLRPRDLISNINVIVLELKGSETTF[hSer]CEYADETATIVEFLNRWITFSQSIISTLT
13 | 0.758 | CMP-162, MMP2 cleaved molecule (ligand, not fully specified; ends and bridges not checked; also: MMP2 cleaved, cleavage site and linker fragment on Lys23 side chain not given here) APTSSSTKKTQLQLEHLLLDLQKILNGINNYKNPKLTR[Nle]L[hSer][Yn3(4)]KF[Ygp(4)][Nle]PKKATELKHLQCLEEELKPLEEVL[hSer]LAQSKNFHLRPRDLISNINVIVLELKGSETTF[hSer]CEYADETATIVEFLNRWITFSQSIISTLT
14 | 1.95 | CMP-158, MMP2 cleaved molecule (ligand, not fully specified; ends and bridges not checked; also: MMP2 cleaved, cleavage site and linker fragments on N-terminus and Glu22 side chain not given here) APTSSSTKKTQLQLEHLLLDLE[Nle]ILNGINNYKNPKLTR[Nle]L[hSer][Yn3(4)]KF[Ygp(4)][Nle]PKKATELKHLQCLEEELKPLEEVL[hSer]LAQSKNFHLRPRDLISNINVIVLELKGSETTF[hSer]CEYADETATIVEFLNRWITFSQSIISTLT
15 | 29.4 | CMP-161 (ligand, bridge N-32; not fully specified (N-terminus, bridges); ends not checked) PLGLAGAPTSSSTKKTQLQLEHLLLDLQ[Nle]ILEGINNYKNPKLTR[Nle]L[hSer][Yn3(4)]KF[Ygp(4)][Nle]PKKATELKHLQCLEEELKPLEEVL[hSer]LAQSKNFHLRPRDLISNINVIVLELKGSETTF[hSer]CEYADETATIVEFLNRWITFSQSIISTLT
16 | 86 | CMP-156 (ligand, linker N-19 via GPLGLAG‑PEG4) APTSSSTKKTQLQLEHLLEDLQ[Nle]ILNGINNYKNPKLTR[Nle]L[hSer][Yn3″]KF[Ygp″][Nle]PKKATELKHLQCLEEELKPLEEVL[hSer]LAQSKNFHLRPRDLISNINVIVLELKGSETTF[hSer]CEYADETATIVEFLNRWITFSQSIISTLT
